From publication doi:10.1101/2022.08.10.503460 (bioRxiv, 2022)

Molecular target: Mouse Pcdh15 EC1-2 (mouse, UniProt Q99PJ1 27-259)
Assay: AFM force-clamp spectroscopy

koff: 0.2 s⁻¹
B1: Mouse Cdh23 EC1-2 (domain or fragment)
chain: QVNRLPFFTNHFFDTYLLISEDTPVGSSVTQLLARDMDNDPLVFGVSGEEASRFFAVEPDTGVVWLRQPLDRETKSEFTVEFSVSDHQGVITRKVNIQVGDVNDNAPTFHNQPYSVRIPENTPVGTPIFIVNATDPDLGAGGSVLYSFQPPSPFFAIDSARGIVTVIQELDYEVTQAYQLTVNATDQDKTRPLSTLANLAIIITD
